The target in this test is T1, V5-tagged SHOC2^S2G (human SHOC2 Ser2Gly mutant) (human, UniProt Q5RAV5 1-582 (Pongo abelii entry), limits assumed, N-myristoylation at the N-terminal glycine (Gly 2) after excision of the initiator methionine; [3H]myristic acid incorporation shown in Cos-1 cells).
T1 construct: Expressed transiently in Cos-1 cells, with human NMT1 co-transfected, from a V5-tagged human SHOC2 cDNA construct made by site-directed mutagenesis; Tested in cell lysates by co-immunoprecipitation; also called mutant SHOC2; not shown: V5 tag
T1 sequence: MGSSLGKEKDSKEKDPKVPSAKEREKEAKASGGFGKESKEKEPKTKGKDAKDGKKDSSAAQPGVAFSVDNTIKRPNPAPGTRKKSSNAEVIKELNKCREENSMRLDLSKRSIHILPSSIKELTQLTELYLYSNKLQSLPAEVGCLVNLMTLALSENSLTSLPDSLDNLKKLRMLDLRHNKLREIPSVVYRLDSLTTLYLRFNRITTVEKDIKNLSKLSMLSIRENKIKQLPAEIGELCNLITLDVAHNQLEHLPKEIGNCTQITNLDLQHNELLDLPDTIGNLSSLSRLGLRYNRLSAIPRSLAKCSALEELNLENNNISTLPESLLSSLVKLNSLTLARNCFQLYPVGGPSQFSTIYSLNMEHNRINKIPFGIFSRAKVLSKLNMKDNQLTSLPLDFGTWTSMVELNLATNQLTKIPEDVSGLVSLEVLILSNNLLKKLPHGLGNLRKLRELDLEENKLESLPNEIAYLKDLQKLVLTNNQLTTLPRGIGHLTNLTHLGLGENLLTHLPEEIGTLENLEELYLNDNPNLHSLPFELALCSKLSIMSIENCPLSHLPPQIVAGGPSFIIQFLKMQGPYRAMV
Description: co-immunoprecipitation (anti-Myc or anti-V5, western blot) and confocal microscopy in COS-1 cells co-transfected with V5- and Myc-tagged proteins.

B1: Myc-tagged SHOC2^wt (wild-type human SHOC2) (other)
chain: MSSSLGKEKDSKEKDPKVPSAKEREKEAKASGGFGKESKEKEPKTKGKDAKDGKKDSSAAQPGVAFSVDNTIKRPNPAPGTRKKSSNAEVIKELNKCREENSMRLDLSKRSIHILPSSIKELTQLTELYLYSNKLQSLPAEVGCLVNLMTLALSENSLTSLPDSLDNLKKLRMLDLRHNKLREIPSVVYRLDSLTTLYLRFNRITTVEKDIKNLSKLSMLSIRENKIKQLPAEIGELCNLITLDVAHNQLEHLPKEIGNCTQITNLDLQHNELLDLPDTIGNLSSLSRLGLRYNRLSAIPRSLAKCSALEELNLENNNISTLPESLLSSLVKLNSLTLARNCFQLYPVGGPSQFSTIYSLNMEHNRINKIPFGIFSRAKVLSKLNMKDNQLTSLPLDFGTWTSMVELNLATNQLTKIPEDVSGLVSLEVLILSNNLLKKLPHGLGNLRKLRELDLEENKLESLPNEIAYLKDLQKLVLTNNQLTTLPRGIGHLTNLTHLGLGENLLTHLPEEIGTLENLEELYLNDNPNLHSLPFELALCSKLSIMSIENCPLSHLPPQIVAGGPSFIIQFLKMQGPYRAMV
notes: Expressed transiently in Cos-1 cells from a Myc-tagged human SHOC2 cDNA construct and tested in cell lysates by co-immunoprecipitation; also called wild type SHOC2; wild-type protein; not shown: Myc tag
On to B1, for which the binding result is given as “no binding”.

Source of the values: patent publication US20110059851A1 (MOUNT SINAI SCHOOL OF MEDICINE OF NEW YORK UNIVERSITY, published 2011).
